This note sets out measurements from patent US20200157151A1, “PEPTIDE COMPOUNDS, CONJUGATE COMPOUNDS AND USES THEREOF FOR TREATING INFLAMMATORY DISEASES” (TRANSFERT PLUS, S.E.C., priority 2017, published 2020).

The target in the test is Human recombinant Sortilin chimera protein from R&D Systems (#3154-ST) (human), Q99523. Kind of test: SPR (Biacore), Sortilin immobilized on CM5 chip, peptide injected. Background: Surface plasmon resonance follows binding to a sensor surface in real time, without labels.

Square brackets hold non-standard residues; d marks the D form. Ends that are not written are not given here. Nle = CCCC[C@H](N)C(=O)O

Chain of Human recombinant Sortilin chimera protein from R&D Systems (#3154-ST) (human), Q99523 (Q99523 78-755, change not shown): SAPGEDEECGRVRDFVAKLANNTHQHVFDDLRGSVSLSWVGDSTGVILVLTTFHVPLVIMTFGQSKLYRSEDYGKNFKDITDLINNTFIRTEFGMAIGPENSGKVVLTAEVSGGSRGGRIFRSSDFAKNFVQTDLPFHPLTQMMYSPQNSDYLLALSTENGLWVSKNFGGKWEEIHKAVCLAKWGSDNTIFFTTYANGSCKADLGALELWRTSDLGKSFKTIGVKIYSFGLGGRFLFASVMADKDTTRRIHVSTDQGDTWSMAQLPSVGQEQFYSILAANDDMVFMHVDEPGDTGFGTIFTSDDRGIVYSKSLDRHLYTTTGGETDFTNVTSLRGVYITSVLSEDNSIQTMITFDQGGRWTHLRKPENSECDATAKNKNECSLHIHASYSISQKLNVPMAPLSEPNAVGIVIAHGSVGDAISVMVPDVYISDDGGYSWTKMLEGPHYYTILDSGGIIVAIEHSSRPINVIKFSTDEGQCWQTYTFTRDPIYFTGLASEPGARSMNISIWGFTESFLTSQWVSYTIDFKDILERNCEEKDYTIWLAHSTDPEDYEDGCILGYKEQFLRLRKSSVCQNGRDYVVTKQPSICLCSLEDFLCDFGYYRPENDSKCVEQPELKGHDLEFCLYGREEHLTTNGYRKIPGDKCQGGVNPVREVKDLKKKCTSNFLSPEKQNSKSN

B1: KBP-106 (peptide)
peptide: Ac-GVRAKAGVRN[Nle]FKSESY
By Kd is commonly meant the constant that tells how readily two partners part at equilibrium. With B1, the Kd turned out to be 46 nM.

B2: KBP-201 (peptide)
peptide: YKSLRRKAPRWDAPLRDPALRQLL
modifications: not checked
B2: the Kd amounted to 3.3 nM.
